# In US20220411504A1 (Janssen / Centocor, published 2022):
# Positions count from the first letter of the chain named.
# B1: HC3B123 (bispecific antibody, human IgG1, kappa, L234A L235A)
# heavy: EVQLVESGGGLVKPGGSLRLSCAASGFTFSRYNMNWVRQAPGKGLEWVSSISTSSNYIYYADSVKGRFTFSRDNAKNSLDLQMSGLRAEDTAIYYCTRGWGPFDYWGQGTLVTVSSASTKGPSVFPLAPSSKSTSGGTAALGCLVKDYFPEPVTVSWNSGALTSGVHTFPAVLQSSGLYSLSSVVTVPSSSLGTQTYICNVNHKPSNTKVDKKVEPKSCDKTHTCPPCPAPEAAGGPSVFLFPPKPKDTLMISRTPEVTCVVVSVSHEDPEVKFNWYVDGVEVHNAKTKPREEQYNSTYRVVSVLTVLHQDWLNGKEYKCKVSNKALPAPIEKTISKAKGQPREPQVYVYPPSREEMTKNQVSLTCLVKGFYPSDIAVEWESNGQPENNYKTTPPVLDSDGSFALVSKLTVDKSRWQQGNVFSCSVMHEALHNHYTQKSLSLSPG
# light: DIQMTQSPSSLSASVGDRVTITCRARQSIGTAIHWYQQKPGKAPKLLIKYASESISGVPSRFSGSGSGTDFTLTISSVQPEDFATYYCQQSGSWPYTFGQGTKLEIKRTVAAPSVFIFPPSDEQLKSGTASVVCLLNNFYPREAKVQWKVDNALQSGNSQESVTEQDSKDSTYSLSSTLTLSKADYEKHKVYACEVTHQGLSSPVTKSFNRGEC
# scFv: DIVMTQSPDSLAVSLGERATINCKSSQSVLHSSNNKNYLTWFQQKPGQPPKLLIYWASTRESGVPDRFSGSGSGTDFTLTISSLQAEDVAVYYCHQYYSTPPTFGQGTKVEIKGGSEGKSSGSGSESKSTGGSQVQLQQSGPGLVKPSQTLSLTCAISGDSVSSNSAAWNWIRQSPSRGLEWLGRTYYRSKWYNDYAVSVKSRITINPDTSKNQISLQLNSVTPEDTAVYYCAGDRRYGIVGLPFAYWGQGTLVTVSSEPKSSDKTHTCPPCPAPEAAGGPSVFLFPPKPKDTLMISRTPEVTCVVVSVSHEDPEVKFNWYVDGVEVHNAKTKPREEQYNSTYRVVSVLTVLHQDWLNGKEYKCKVSNKALPAPIEKTISKAKGQPREPQVYVLPPSREEMTKNQVSLLCLVKGFYPSDIAVEWESNGQPENNYLTWPPVLDSDGSFFLYSKLTVDKSRWQQGNVFSCSVMHEALHNHYTQKSLSLSPG
# B2: HC3B214 (bispecific antibody, human IgG1, kappa, L234A L235A)
# heavy: B1 heavy
# light: B1 light
# scFv: not shown
# B3: HC3B216 (bispecific antibody, human IgG1, lambda, L234A L235A)
# heavy: QVQLQQSGPRLVRPSQTLSLTCAISGDSVFNNNAAWSWIRQSPSRGLEWLGRTYYRSKWLYDYAVSVKSRITVNPDTSRNQFTLQLNSVTPEDTALYYCARGYSSSFDYWGQGTLVTVSSASTKGPSVFPLAPSSKSTSGGTAALGCLVKDYFPEPVTVSWNSGALTSGVHTFPAVLQSSGLYSLSSVVTVPSSSLGTQTYICNVNHKPSNTKVDKKVEPKSCDKTHTCPPCPAPEAAGGPSVFLFPPKPKDTLMISRTPEVTCVVVSVSHEDPEVKFNWYVDGVEVHNAKTKPREEQYNSTYRVVSVLTVLHQDWLNGKEYKCKVSNKALPAPIEKTISKAKGQPREPQVYVYPPSREEMTKNQVSLTCLVKGFYPSDIAVEWESNGQPENNYKTTPPVLDSDGSFALVSKLTVDKSRWQQGNVFSCSVMHEALHNHYTQKSLSLSPG
# light: QSALTQPASVSGSPGQSITISCTGTSSNIGTYKFVSWYQQHPDKAPKVLLYEVSKRPSGVSSRFSGSKSGNTASLTISGLQAEDQADYHCVSYAGSGTLLFGGGTKLTVLGQPKAAPSVTLFPPSSEELQANKATLVCLISDFYPGAVTVAWKADSSPVKAGVETTTPSKQSNNKYAASSYLSLTPEQWKSHRSYSCQVTHEGSTVEKTVAPTECS
# scFv: not shown
# B4: HC3B238 (bispecific antibody, human IgG1, kappa, L234A L235A)
# scFv: EVQLVESGGGLVKPGGSLRLSCAASGFTFSRYNMNWVRQAPGKGLEWVSSISTSSNYIYYADSVKGRFTFSRDNAKNSLDLQMSGLRAEDTAIYYCTRGWGPFDYWGQGTLVTVSSGGSEGKSSGSGSESKSTGGSDIQMTQSPSSLSASVGDRVTITCRARQSIGTAIHWYQQKPGKAPKLLIKYASESISGVPSRFSGSGSGTDFTLTISSVQPEDFATYYCQQSGSWPYTFGQGTKLEIKEPKSSDKTHTCPPCPAPEAAGGPSVFLFPPKPKDTLMISRTPEVTCVVVSVSHEDPEVKFNWYVDGVEVHNAKTKPREEQYNSTYRVVSVLTVLHQDWLNGKEYKCKVSNKALPAPIEKTISKAKGQPREPQVYVYPPSREEMTKNQVSLTCLVKGFYPSDIAVEWESNGQPENNYKTTPPVLDSDGSFALVSKLTVDKSRWQQGNVFSCSVMHEALHNHYTQKSLSLSPGK
# heavy: QVQLQQSGPGLVKPSQTLSLTCAISGDSVSSNRAAWNWIRQSPSRGLEWLGRTYYRSKWYNDYAVSVKSRITINPDTSKNQISLQLNSVTPEDTAVYYCARVRPGIPFDYWGQGTPVTVSSASTKGPSVFPLAPSSKSTSGGTAALGCLVKDYFPEPVTVSWNSGALTSGVHTFPAVLQSSGLYSLSSVVTVPSSSLGTQTYICNVNHKPSNTKVDKKVEPKSCDKTHTCPPCPAPEAAGGPSVFLFPPKPKDTLMISRTPEVTCVVVSVSHEDPEVKFNWYVDGVEVHNAKTKPREEQYNSTYRVVSVLTVLHQDWLNGKEYKCKVSNKALPAPIEKTISKAKGQPREPQVYVLPPSREEMTKNQVSLLCLVKGFYPSDIAVEWESNGQPENNYLTWPPVLDSDGSFFLYSKLTVDKSRWQQGNVFSCSVMHEALHNHYTQKSLSLSPG
# light: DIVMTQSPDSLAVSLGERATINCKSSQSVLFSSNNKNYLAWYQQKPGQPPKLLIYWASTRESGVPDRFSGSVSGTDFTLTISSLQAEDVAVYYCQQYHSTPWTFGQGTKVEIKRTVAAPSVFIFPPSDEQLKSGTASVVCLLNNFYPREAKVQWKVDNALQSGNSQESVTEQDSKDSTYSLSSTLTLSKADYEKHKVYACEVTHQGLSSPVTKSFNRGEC
# B5: HC3B237 (bispecific antibody, human IgG1, kappa, L234A L235A)
# scFv: DIQMTQSPSSLSASVGDRVTITCRARQSIGTAIHWYQQKPGKAPKLLIKYASESISGVPSRFSGSGSGTDFTLTISSVQPEDFATYYCQQSGSWPYTFGQGTKLEIKGGSEGKSSGSGSESKSTGGSEVQLVESGGGLVKPGGSLRLSCAASGFTFSRYNMNWVRQAPGKGLEWVSSISTSSNYIYYADSVKGRFTFSRDNAKNSLDLQMSGLRAEDTAIYYCTRGWGPFDYWGQGTLVTVSSEPKSSDKTHTCPPCPAPEAAGGPSVFLFPPKPKDTLMISRTPEVTCVVVSVSHEDPEVKFNWYVDGVEVHNAKTKPREEQYNSTYRVVSVLTVLHQDWLNGKEYKCKVSNKALPAPIEKTISKAKGQPREPQVYVYPPSREEMTKNQVSLTCLVKGFYPSDIAVEWESNGQPENNYKTTPPVLDSDGSFALVSKLTVDKSRWQQGNVFSCSVMHEALHNHYTQKSLSLSPGK
# heavy: B4 heavy
# light: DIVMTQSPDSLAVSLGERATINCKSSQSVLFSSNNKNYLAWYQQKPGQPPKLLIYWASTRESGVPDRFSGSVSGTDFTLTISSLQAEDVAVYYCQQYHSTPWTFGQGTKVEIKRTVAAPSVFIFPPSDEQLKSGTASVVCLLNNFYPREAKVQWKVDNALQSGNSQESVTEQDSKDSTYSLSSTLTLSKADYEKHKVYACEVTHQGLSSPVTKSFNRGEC
# B6: HC3B236 (bispecific antibody, human IgG1, kappa, L234A L235A)
# scFv: QSALTQPASVSGSPGQSITISCTGTSSNIGTYKFVSWYQQHPGKAPKVMIYEVSKRPSGVSNRFSGSKSGNTASLTISGLQAEDEADYYCVSYAGSGTLLFGGGTKLTVLGGSEGKSSGSGSESKSTGGSQVQLQQSGPGLVKPSQTLSLTCAISGDSVFNNNAAWSWIRQSPSRGLEWLGRTYYRSKWLYDYAVSVKSRITINPDTSKNQFSLQLNSVTPEDTAVYYCARGYSSSFDYWGQGTLVTVSSEPKSSDKTHTCPPCPAPEAAGGPSVFLFPPKPKDTLMISRTPEVTCVVVSVSHEDPEVKFNWYVDGVEVHNAKTKPREEQYNSTYRVVSVLTVLHQDWLNGKEYKCKVSNKALPAPIEKTISKAKGQPREPQVYVYPPSREEMTKNQVSLTCLVKGFYPSDIAVEWESNGQPENNYKTTPPVLDSDGSFALVSKLTVDKSRWQQGNVFSCSVMHEALHNHYTQKSLSLSPG
# heavy: B4 heavy
# light: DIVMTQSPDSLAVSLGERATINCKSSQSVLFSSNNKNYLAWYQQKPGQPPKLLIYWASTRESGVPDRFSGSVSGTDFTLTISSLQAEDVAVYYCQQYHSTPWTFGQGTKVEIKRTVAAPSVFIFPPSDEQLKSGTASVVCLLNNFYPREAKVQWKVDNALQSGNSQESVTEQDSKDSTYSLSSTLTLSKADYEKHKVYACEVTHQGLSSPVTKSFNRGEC
# B7: CD3W245-HL-E.c. (scFv)
# scFv: EVQLVESGGGLVKPGGSLRLSCAASGFTFSRYNMNWVRQAPGKGLEWVSSISTSSNYIYYADSVKGRFTFSRDNAKNSLDLQMSGLRAEDTAIYYCTRGWGPFDYWGQGTLVTVSSGTEGKSSGSGSESKSTDIQMTQSPSSLSASVGDRVTITCRARQSIGTAIHWYQQKPGKAPKLLIKYASESISGVPSRFSGSGSGTDFTLTISSLQPEDFATYYCQQSGSWPYTFGQGTKLEIKGPGGQHHHHHHGAYPYDVPDYAS
# notes: E. coli supernatant
# B8: CD3W241-HL-E.C. (scFv)
# chain: B7 scFv with K181Y, L210V, G224N
# B9: CD3W234-HL-E.c. (scFv)
# scFv: EVQLVESGGGLVKPGGSLRLSCAASGFTFSRYNMNWVRQAPGKGLEWVSSISTSSNYIYYADSVKGRFTFSRDNAKNSLDLQMSGLRAEDTAIYYCTRGWGPFDYWGQGTLVTVSSGTEGKSSGSGSESKSTDILLTQSPGILSVSPGERVSFSCRARQSIGTAIHWYQQRTNGSPRLLIKYASESISGIPSRFSGSGSGTDFTLTINSVESEDIADYYCQQSNSWPYTFGGGTKLEIKGPGGQHHHHHHGAYPYDVPDYAS
# notes: E. coli supernatant; also called CD3B815-HL-scFV
# B10: CD3W248-HL-E.c. (scFv)
# scFv: B9 scFv with N224G
# notes: E. coli supernatant
# Biological target: HLA-G on cells (K562-HLA-G and HLA-G expressing tumor cells) (human)
# Test: cell-based or functional assay
row,Binder,"Cytotoxicity, EC50 (T cell-mediated, NCI-H2009-b2m target cells, 72 hr) [pM]"
1,B1,3.24
2,B2,138
3,B3,1900
4,B4,17.3
5,B5,133
6,B6,4540

# Biological target: T1, Human CD3 epsilon (CD3ε) of the T cell receptor complex on cells (human, UniProt P07766 23-207)
# T1 construct: On Jurkat cells and primary human (pan) T cells; also called T-cell surface glycoprotein CD3 epsilon chain; T3E
# Test: flow cytometry, E. coli supernatant on human T cells
# Description: The scFv molecules were then tested for their abilities to bind T cells, using flow cytometry. Briefly, human T cells were thawed and resuspended into flow staining buffer at 1×10\hat{ }6 cells/mL and plated at 50,000 cells/well. A positive control, CD3W36 was comprised of an anti-CD3 antibody SP34 formatted as LH-scFv, and a negative control, B23, an scFv targeted against the F-glycoprotein from respiratory syncytial virus, were used for comparison of binding. E. coli supernatants were added at 150 uL/well and incubated at 4° C. for 1 hr. […] After incubation, 200 uL of IntelliCyt running buffer was added to the mixture, and cells were resuspended in 30 uL running buffer containing 1:1,000 Sytox Green dead cell stain and analyzed on iQue Screener.
# T1 sequence (P07766 23-207 limits assumed, one chain of several): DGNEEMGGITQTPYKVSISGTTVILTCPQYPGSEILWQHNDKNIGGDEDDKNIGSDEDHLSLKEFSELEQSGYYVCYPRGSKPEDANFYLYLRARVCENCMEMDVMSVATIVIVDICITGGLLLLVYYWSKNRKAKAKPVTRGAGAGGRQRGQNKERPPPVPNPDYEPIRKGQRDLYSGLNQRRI
row,MFI (n = 2),Binder
1,178000,B7
2,121000,B8
3,66800,B9
4,60400,B10

# Biological target: T2, CD3W147 (homodimeric CD3εγ-Fc) (human, biotinylated)
# T2 construct: also called recombinant CD3
# T2 chain: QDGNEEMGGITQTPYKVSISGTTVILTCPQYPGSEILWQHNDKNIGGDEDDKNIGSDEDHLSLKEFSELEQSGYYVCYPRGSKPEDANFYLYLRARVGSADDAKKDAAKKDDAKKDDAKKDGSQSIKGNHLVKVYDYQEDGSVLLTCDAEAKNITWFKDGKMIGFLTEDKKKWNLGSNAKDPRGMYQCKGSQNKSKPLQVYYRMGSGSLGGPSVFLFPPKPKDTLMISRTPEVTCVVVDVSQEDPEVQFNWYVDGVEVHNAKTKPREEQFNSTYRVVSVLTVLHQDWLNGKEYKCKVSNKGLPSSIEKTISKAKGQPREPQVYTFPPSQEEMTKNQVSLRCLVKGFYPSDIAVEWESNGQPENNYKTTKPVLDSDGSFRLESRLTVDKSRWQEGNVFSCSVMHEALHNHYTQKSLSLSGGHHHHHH
# Test: ELISA, E. coli supernatant (heated to 60° C., cooled) on biotinylated CD3W147
# Description: Plates were blocked with 1×PBS-Tween supplemented with 3% milk. Plates were washed with 1×PBS-Tween. E. coli supernatants were heated to 60° C. then cooled to room temperature to assess their thermal stability. Supernatant was added to each plate and incubated for 45 min at room temperature.
row,binding result,Binder
1,binds,B7
2,binds,B9
3,binds,B10
